Measurements from the nanobody polyreactivity screen of Harvey et al. (2022).

Experiment: yeast display, Sf9 membrane polyspecificity reagent, FACS + sequencing; frameworks hold sequencing errors
Method in brief: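 In a synthetic yeast display library (Saccharomyces cerevisiae BJ5465), nanobody expression was induced with galactose for 36–48 hours. FACS gates were set low and high (top ~1%) using anti-HA fluorescence for expression and streptavidin fluorescence for binding of the Sf9 membrane reagent. Each polyreactivity label is drawn from the gate of origin.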

| Sequence | polyreactivity (PSR sort gate) |
| --- | --- |
| QVQLVESGGGLVQAGGSLRLSCAASGRIFSYNAMGWYRQAPGKERELVAAISSDGSTYYADSVKGRFTISRDNAKNTVYLQMNSLKPEDTAVYYCNADPGLYDVLYSSGDFDYWGQGTQVTVSS | low polyreactivity |
| QVQLVESGGGLVQAGGSLRLSCAASGRIFSYNAMGWYRQAPGKERELVAAISYRGGSTYYADSVKGRFTISRDNAKNTVYLQMNSLNPEDTAVYYCNAEAYYPYGYDYWGQGTQVTVSS | low polyreactivity |
| QVQLVESGGGLVQAGGSLRLSCAASGRIFSYNAMGWYRQAPGKERELVAGITSGGRTYYADSVKGRFTISRDNAKNTVYLQMNSLKPEDTAVHYCAASYVPARTRYYYWGQGTQVTVSS | high polyreactivity |
| QVQLVESGGGLVQAGGSLRLSCAASGRIFSYNTMGWYRQAPGKERELVAAISWSGGSTSYADSVKGRFTISRDNAKNTVYLQMNSLKPEDTAVYYCATGSKRNPFYRGNYWGQGTQVTVSS | low polyreactivity |
| QVQLVESGGGLVQAGGSLRLSCAASGRIFSYTAMGWYRQAPGKERELVAAITRVDNTNYADSVKGRFTISRDNAKNTVYLQMNSLKPEDTAVYYCNARQHQVRWWLREFDYWGQGTQVTVSS | low polyreactivity |
| QVQLVESGGGLVQAGGSLRLSCAASGRIFSYTARGWSRQAPGKERELVAAISGSTGNTYYADSVKGRFTISRDNAKTTLYLQMNSLKPEDTAVYYCNKLGYKYDYWGQGTQVTVSS | high polyreactivity |
| QVQLVESGGGLVQAGGSLRLSCAASGRIFSYYAMGWYRQAPGKERELVAAITSGGSTYYADSVKGRFTISRDNAKNTVYLQMNSLKPEDTAVYYCNVVSDFRYYYWGQGTQVTVSS | low polyreactivity |
| QVQLVESGGGLVQAGGSLRLSCAASGRIFSYYAMGWYRQAPGKERELVARISWRGGSTYYADSVKGRFTISRDNSKNTVYLQMNSLKPEDSAVYYCAATSPYYRTGYDYWGQGTQVTVSS | high polyreactivity |
| QVQLVESGGGLVQAGGSLRLSCAASGRIFSYYAMGWYRQAPGKERELVASISRSGGSTYYANSVKGRFTISRDNAKNTVYLQMNSLKPEDTAVYYCNAEARYTGFAYSYFNSDYWGQGTQVTVSS | low polyreactivity |
| QVQLVESGGGLVQAGGSLRLSCAASGRIFSYYAMGWYRQAPGKERELVATINSGGSTNYADSVKGRFTISRDNAKNTVYLQMNSLKPEDTAVYYCAASPVWWYDYWGQGTQVTVSS | low polyreactivity |
| QVQLVESGGGLVQAGGSLRLSCAASGRIFSYYAMGWYRQAPGKERELVAVISRRGDNTYYADSVKGRFTISRDNAKNTVYLQMNSLKPEDTAVYYCAAYSWYAKDFDYWGQGTQVTVSS | high polyreactivity |
| QVQLVESGGGLVQAGGSLRLSCAASGRIFSYYAMGWYRQAPRKERELVAAITWSGGSTYYADSVKGRFTISRDNAKNTVYLQMNSLKPEDTAVYYCAADRRRWLYYGYDYWGQGTQVTVSS | high polyreactivity |
| QVQLVESGGGLVQAGGSLRLSCAASGRIFSYYTMGWYRQAPGKERELVAAITGSGGTTYYADSVKGRFTISRDNAKNTVYLQMNSLKPEDTAVYYCAARGYYRWAPYADWRFNYWGQGTQVTVSS | high polyreactivity |
| QVQLVESGGGLVQAGGSLRLSCAASGRIFTANVMGWYRQAPGKERELVAAIDYSGGSTYYADSVKGRFTISRDNAKNTVYLQMNSLKPEDTAVYYCNRDDYADYYHLEYDYWGQGTQVTVSS | low polyreactivity |
| QVQLVESGGGLVQAGGSLRLSCAASGRIFTAYAMGWYRQAPGKERELVAAISSGDSTYYADSVKGRFTISRDNAKNTVSLQMNSLKPEDTAVYYCATGVYPDFEYDSWGQGTQVTVSS | low polyreactivity |
| QVQLVESGGGLVQAGGSLRLSCAASGRIFTDYTMGWYRQAPGKERELVAAISYSGGSTYYADSVKGRFTISRDNAKNSVYLQMNSLKPEDTAVYYCNRDPQKYRWIPRYDYWGHGTQVTVSS | low polyreactivity |
| QVQLVESGGGLVQAGGSLRLSCAASGRIFTFYAMGWYRQAPGKERELVAAISSGGSTYYADSVKGRFTISRDNAKNTVYLQMHSLKPEDTAVYYCAAEPVWYADYDYWGQGTQVTVSS | low polyreactivity |
| QVQLVESGGGLVQAGGSLRLSCAASGRIFTFYAMGWYRQAPGKERELVAAITSGGSTYYADSVKGRFTISRDNAKNTVYLQMNSLKPEDTAVYYCNALHHTQHDYWGQGTQVTVSS | low polyreactivity |
| QVQLVESGGGLVQAGGSLRLSCAASGRIFTFYAMGWYRQAPGKERELVARISKRGGSTYYADSVKGRFTISRDYAKNTVYLQRNSLKPEDTAVYYCAKAYDPTTYDYWGQGTQVTVSS | high polyreactivity |
| QVQLVESGGGLVQAGGSLRLSCAASGRIFTGNAMGWYRQAPGKERELVAAISRRGTRTYYADSVKGRFTISRDNAKNTVYLQMNSLKPEDTAVYYCATVLYKAYNDYGYWGQGTQVTVSS | high polyreactivity |
| QVQLVESGGGLVQAGGSLRLSCAASGRIFTHNAMGGYRQAPGKERELVAAITIGGRTNYADSVKGRFTISRDNAKYTVYLQMNSLKPEDTAVYYCDRRYGTWNAYDYWGQGTLVTVSS | low polyreactivity |
| QVQLVESGGGLVQAGGSLRLSCAASGRIFTHNAMGWYRQAPGKERELVAAITSGGRTTYADSVKGRFTISRDNAKNTVYLQRNSLKPEDTAVYYCNADTGLGSLDFDKRDYWGQGTQVTVSS | low polyreactivity |

| Sequence | polyreactivity (PSR sort gate) |
| --- | --- |
| QVQLVESGGGLVQAGGSLRLSCAASGRIFTKYAMGWYRQAPGKERELVATISKRSGSTYYADSVKGRFTISRDNAKNTVYLQMNSLKPEDTAVYYCARTVGYRTLLESDSWGQGTQVTVSS | high polyreactivity |
| QVQLVESGGGLVQAGGSLRLSCAASGRIFTNYAMGWYRQAPGKERELVAAINWDGGSTYYADSVKGRFTISRDNAKNTVYLQMNSLKPVDTAVYYCAAQGGLSEYDYWGQGTQVTVSS | low polyreactivity |
| QVQLVESGGGLVQAGGSLRLSCAASGRIFTRNAMGWCRPAPGKERELVAAITYTGANTYYADSVKGRFTISRDNAKNTVYLQMNSLKPEDTAVYYCAADGRVKGWGQGTQVTVSS | high polyreactivity |
| QVQLVESGGGLVQAGGSLRLSCAASGRIFTRYAMGWSRQAPGKERELVAAISSGGSTYYADSVKGRYTISRDKAKNTVYLQMNSLKPEDTAVYYCAAGTWWWYKFNYWGQGTQVTVSS | high polyreactivity |
| QVQLVESGGGLVQAGGSLRLSCAASGRIFTRYAMGWYCQAPGNDRELVAVIRDGSTYYADSVKGRFTISRDNGKNTVYLQMNSLKPEDTAVYYCRYDIWDWWSGAYDYWGQGTQVTVSS | low polyreactivity |
| QVQLVESGGGLVQAGGSLRLSCAASGRIFTRYAMGWYRQAPGKARELVAAITSSGGRTYYADSVKGRFTISRDNAKNTVYLQMNSLKQEDTAVYYCATGYINSYYYWGQGTQVTVSS | high polyreactivity |
| QVQLVESGGGLVQAGGSLRLSCAASGRIFTRYTMGWYRQAPGKDRELVAAITRGGSTYYADSVKGRFTISRDNANNTVYLQMNSLKPEDTAVYYCATQVWGGRYNYWGQGTQVTVTS | high polyreactivity |
| QVQLVESGGGLVQAGGSLRLSCAASGRIFTRYTMGWYRQAPGKERELVAAISSSDSSTYYADSVKGRFTISRDNAKNTVYLQMNSLKPEDTAVYYCNADRLFYEIYDYGAVRIGYDYWGQGTQVTVSS | low polyreactivity |
| QVQLVESGGGLVQAGGSLRLSCAASGRIFTSNAMGWYRQAPGKERELVAAISGSGGRTYYADSVKGRFTISRDNAKNTVYLQMNSLKPEDTAVYYCAVGTRVKYDYWGQGTQVTVSS | high polyreactivity |
| QVQLVESGGGLVQAGGSLRLSCAASGRIFTSNAMGWYRQAPGKERELVAAISSSSGSTYYADSVKGRFTISRDNAKNTVSLQMNSLKPEDTAVYYCAARTWRVSGTYKYDYWGQGTQVTVSS | low polyreactivity |
| QVQLVESGGGLVQAGGSLRLSCAASGRIFTSNTMGWYRQAAGKEGELVAAITSSGGSMYYADSVKGRFTISRDNAKNTVYLQMNSLKPEDTAVYYCAADTIGYHYWYDYWGQGTQVTVSS | low polyreactivity |
| QVQLVESGGGLVQAGGSLRLSCAASGRIFTTNAMGWYRQAPGKERELVAAITYSGGTTYYADSVKGRFTISRDNAKNTVYLQLNSLNPEDTAVYYCAADVKFSTPYDYWGQGSQVTVSS | low polyreactivity |
| QVQLVESGGGLVQAGGSLRLSCAASGRIFTTYAMGWYRQAPGKERELVATITTTDTRTYADSVKGRFTISRDNAKNTVYLQMNSLKPEDTAVYYCAKDRLNKGRYYRAASDYWGQGTQVTVSS | low polyreactivity |
| QVQLVESGGGLVQAGGSLRLSCAASGRIFTVNAMGGYRQAPGKERELVAAITFSGANTYYADSVKGRFTISRDNAKNTVFLQMNSLKPEDTAVYYCAGDPPNGAEYYWGQGTQVTVSS | high polyreactivity |
| QVQLVESGGGLVQAGGSLRLSCAASGRIFTVYAMGWYRQAPGKERELVAAISGRGGRTYYADSVKGRFTISRDNAKNTVYLQMNSLKPEDTAVYYCNADTLTLTRPDGDIHTVWMDYWGQGTQVTVSS | low polyreactivity |
| QVQLVESGGGLVQAGGSLRLSCAASGRIFTVYAMGWYRQAPGKERELVAAISSSGGSTYYADSLKGRFTISRDNAKNSVFLQMNSLKPEDTAVYYCAKPRTYDKDKYDYWGQCTQVTVSS | high polyreactivity |
| QVQLVESGGGLVQAGGSLRLSCAASGRIFTVYAMGWYRQAPGKERELVAAITRGGGGTYYADSVKGRFTISRDNAKNTVYFQMNSLKPEETAVYYCAAAYRGDRWSYRVDYWGQGTQVTVSS | high polyreactivity |
| QVQLVESGGGLVQAGGSLRLSCAASGRIFTWYAKGWYRQAPGKERELVAAISWSGGRTYYADSVKGRFTISRDNAKNTVYLQMNSLKPEDTAVYYCNAVPSVRWRYDYWGQGTQVTVSS | high polyreactivity |
| QVQLVESGGGLVQAGGSLRLSCAASGRIFTYDAMGWYRPAPGKERELLATITSGGSTNYADSVKGRFTISRDNAMNTVYLQMNSLKPEDTAVDYCATRKYRVPRSYYWGQGTQVTVSS | high polyreactivity |
| QVQLVESGGGLVQAGGSLRLSCAASGRIFTYNAMGGYRQAPGKESEFVAAISSGGSTTYADSVKGRFTISRDNAKNTVYLQMISLKPEDTAVYYCAARGWRFAIIQYEYWGQGTQVTVSS | low polyreactivity |
| QVQLVESGGGLVQAGGSLRLSCAASGRIFTYYAMGWYRQAPGKERELVAAISSGGSTYYADSVKGRFTISRDNAKNTVYLQMNSLKPEDTAVYYCAADSIYYFPYDYWGQGTQVTVSS | high polyreactivity |
